The record followed here is article PMC8301893, “Identification of HSP47 Binding Site on Native Collagen and Its Implications for the Development of HSP47 Inhibitors” (Biomolecules, 2021).

Assay [1] addresses Collagen from calf skin (Sigma-Aldrich, Cat No: C9791) (calf) (UniProt P02453).
Assay [2] addresses Integrin peptide 1 (GFOGER flanked by [GPP]5 at both ends). Nature of the assay: ELISA; solid-phase binding assay (SPBA): peptides coated at 10 µg/mL overnight at 4 °C on Immulon 2HB 96-well plates, blocked with TBS containing 5% BSA; 1 µg/mL recombinant HSP47 for 1 h at room temperature; HRP-conjugated anti-His antibody, TMB, A450; means of three independent experiments.

Where only a bound is given, the exact number is not on record here.

UniProt P02453, sequence (P02453 162-1217, chain 1 of 2): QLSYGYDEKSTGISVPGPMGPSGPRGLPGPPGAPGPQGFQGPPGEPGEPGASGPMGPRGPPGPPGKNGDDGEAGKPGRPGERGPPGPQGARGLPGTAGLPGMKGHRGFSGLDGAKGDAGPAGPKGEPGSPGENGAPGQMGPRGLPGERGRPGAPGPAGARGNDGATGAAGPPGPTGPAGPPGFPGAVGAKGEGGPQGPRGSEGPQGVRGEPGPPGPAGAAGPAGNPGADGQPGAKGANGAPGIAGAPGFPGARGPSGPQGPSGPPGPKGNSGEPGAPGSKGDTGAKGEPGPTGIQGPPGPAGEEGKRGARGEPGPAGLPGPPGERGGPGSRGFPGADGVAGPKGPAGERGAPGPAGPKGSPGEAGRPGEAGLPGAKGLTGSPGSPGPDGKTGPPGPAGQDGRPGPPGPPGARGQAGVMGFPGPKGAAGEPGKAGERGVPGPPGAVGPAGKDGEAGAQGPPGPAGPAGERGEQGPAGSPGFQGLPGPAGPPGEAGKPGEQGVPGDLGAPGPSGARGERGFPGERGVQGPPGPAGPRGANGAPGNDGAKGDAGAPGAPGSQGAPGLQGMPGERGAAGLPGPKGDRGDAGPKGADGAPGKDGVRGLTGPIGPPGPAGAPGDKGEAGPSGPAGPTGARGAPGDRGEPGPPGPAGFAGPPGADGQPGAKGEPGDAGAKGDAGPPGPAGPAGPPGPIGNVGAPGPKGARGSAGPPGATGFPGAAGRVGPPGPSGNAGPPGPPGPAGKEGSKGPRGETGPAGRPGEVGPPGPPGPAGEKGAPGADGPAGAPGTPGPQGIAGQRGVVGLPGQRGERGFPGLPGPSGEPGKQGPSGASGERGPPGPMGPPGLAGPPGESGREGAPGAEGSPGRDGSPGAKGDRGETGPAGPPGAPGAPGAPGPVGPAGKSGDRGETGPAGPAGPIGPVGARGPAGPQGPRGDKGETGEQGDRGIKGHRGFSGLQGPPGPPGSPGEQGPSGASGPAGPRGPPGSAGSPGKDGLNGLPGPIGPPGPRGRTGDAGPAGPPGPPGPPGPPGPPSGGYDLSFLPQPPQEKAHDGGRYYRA
UniProt P02453, sequence (P02465 80-1117, chain 2 of 2, further chain): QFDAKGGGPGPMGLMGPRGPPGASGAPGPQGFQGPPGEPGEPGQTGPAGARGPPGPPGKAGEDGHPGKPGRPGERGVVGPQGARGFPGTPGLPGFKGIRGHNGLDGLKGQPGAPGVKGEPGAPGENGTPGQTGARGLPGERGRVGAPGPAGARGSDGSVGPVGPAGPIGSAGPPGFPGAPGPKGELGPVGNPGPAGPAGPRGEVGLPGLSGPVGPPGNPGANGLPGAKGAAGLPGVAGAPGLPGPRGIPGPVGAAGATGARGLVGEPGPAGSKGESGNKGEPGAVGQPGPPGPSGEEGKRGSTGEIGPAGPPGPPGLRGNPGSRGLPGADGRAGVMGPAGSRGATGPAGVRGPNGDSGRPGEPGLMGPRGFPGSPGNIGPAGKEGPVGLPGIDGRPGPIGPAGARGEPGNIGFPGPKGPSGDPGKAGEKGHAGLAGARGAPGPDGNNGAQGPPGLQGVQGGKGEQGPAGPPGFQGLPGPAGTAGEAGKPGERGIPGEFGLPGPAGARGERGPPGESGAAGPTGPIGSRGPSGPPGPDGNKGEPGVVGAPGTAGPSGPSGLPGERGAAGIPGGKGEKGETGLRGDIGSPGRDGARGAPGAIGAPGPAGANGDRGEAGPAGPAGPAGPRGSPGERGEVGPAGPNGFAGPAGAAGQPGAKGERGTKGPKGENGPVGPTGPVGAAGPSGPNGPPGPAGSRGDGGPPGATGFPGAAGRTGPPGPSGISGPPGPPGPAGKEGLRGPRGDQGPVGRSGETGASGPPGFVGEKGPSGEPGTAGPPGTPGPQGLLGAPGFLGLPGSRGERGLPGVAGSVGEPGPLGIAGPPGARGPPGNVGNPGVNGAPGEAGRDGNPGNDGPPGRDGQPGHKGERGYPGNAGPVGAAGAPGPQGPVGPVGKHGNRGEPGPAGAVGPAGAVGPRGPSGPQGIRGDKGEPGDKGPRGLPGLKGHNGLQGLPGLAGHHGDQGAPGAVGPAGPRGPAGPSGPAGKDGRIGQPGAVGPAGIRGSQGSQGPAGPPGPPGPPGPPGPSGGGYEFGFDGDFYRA

B1: human HSP47 (heat shock protein 47), amino acids 19-418, C-terminal His-tag (natural protein)
chain: AEVKKPAAAAAPGTAEKLSPKAATLAERSAGLAFSLYQAMAKDQAVENILVSPVVVASSLGLVSLGGKATTASQAKAVLSAEQLRDEEVHAGLGELLRSLSNSTARNVTWKLGSRLYGPSSVSFADDFVRSSKQHYNCEHSKINFRDKRSALQSINEWAAQTTDGKLPEVTKDVERTDGALLVNAMFFKPHWDEKFHHKMVDNRGFMVTRSYTVGVMMMHRTGLYNYYDDEKEKLQIVEMPLAHKLSSLIILMPHHVEPLERLEKLLTKEQLKIWMGKMQKKAVAISLPKGVVEVTHDLQKHLAGLGLTEAIDKNKADLSRMSGKKDLYLASVFHATAFELDTDGNPFDQDIYGREELRSPKLFYADHPFIFLVRDTQSGSLLFIGRLVRPKGDKMRDEL
For the molecule B1, in assay [1], the IC50 of the small molecule Com II against HSP47 (2.6 μM) in the turbidity assay of collagen fibril formation lay within 50 to 100 µM, the IC50 of the small molecule Hs1 against HSP47 (2.6 μM) in the turbidity assay of collagen fibril formation stood at 97 µM and the IC50 of the small molecule Hs55 against HSP47 (2.6 μM) in the turbidity assay of collagen fibril formation worked out at 55 µM. Also, the Mean A450 in assay [2] was greater than 2 A450.
